In publication PMC9738047 (International Journal of Molecular Sciences, 2022):

Molecular target: the molecule itself
Assay: crystal structure; anti-IL-17A-76 and IL-17A mixed at molar ratio 2.3:1, complex isolated on Superdex G-75; vapor diffusion at 297 K; 2.85 A; molecular replacement with 4HSA and 6QKD

B1: IL-17A (interleukin-17A) without N-signal sequence, double mutation N68D/C129S (ligand, UniProt Q16552 24-155, looked up)
chain: GITIPRNPGCPNSEDKNFPRTVMVNLNIHNRNTNTNPKRSSDYYDRSTSPWNLHRNEDPERYPSVIWEAKCRHLGCINADGNVDYHMNSVPIQQEILVLRREPPHSPNSFRLEKILVSVGCTCVTPIVHHVA
notes: Dimer in the crystal (monomer in the asymmetric unit, molecules A and A*); also called the cytokine
B1: binds.
